Experimental findings from article PMC11457862 (2024) are described below.

Usually EC50 stands for the concentration at which the effect is half-maximal.

This test concerns the target human IL-2 (human, UniProt P60568 21-153). Description: FACS. A general note: In flow cytometry, cells or beads pass a laser one at a time.

Several values for one entry are separate records, joined by “and”; a condition that tells them apart may be missing. Identical values can stand only once.

B1: yeast-displayed 602 scFv (scFv, V domains shown)
VH: EVQLQESGPGLVAPSQSLSITCTVSGFSLTNYDISWIRQPPGKGLEWLGVIWTGGGTNYNSGFMSRLSITKDNSKSQVFLKMNSLQTDDTAIYYCVRQGRTPYWGQGTLVTVSA
VL: DIQVTQSPSSLSVSLGDRVTITCKASKDIYNRLAWYQQKPGNAPRLLISGATSLETGVPSRFSGSGSGKDYTLTITSLQTEDVATYYCQQFWGTPYTFGGGTKLEIK
For B1, the 50% effective concentration (EC50) was 13.3 nM and 12.2 nM.
